Results as given in patent publication US20220396632A1 (VERSEAU THERAPEUTICS, published 2022).
Non-standard residues stand in square brackets, D forms with d. No end group written: not given here. *: point of attachment. Biotin = O=C1N[C@H]2[C@H](CS[C@H]2CCCCC(=O)*)N1; sY = N[C@@H](Cc1ccc(OS(=O)(=O)O)cc1)C(=O)O

Assays:
Assay in all cases: ELISA, 50 nM mAb
[1] = target: T1, Sulfotyr fibrinogen γ peptide (not fully specified; Y8 and Y12 sulfated (SO3); C-terminal biotin)
T1 construct: also called Fibrinogen gamma peptide; human sulfotyrosinylated fibrinogen peptide
T1 peptide: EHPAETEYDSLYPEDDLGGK
Procedure: (§1) Recombinant PSGL-1-hFc1 chimera protein consisting of PSGL-1's extracellular domain (ECD) served as a positive control. […] Primary antibody was added (25 ul per well) in duplicate at 50 nM in assay buffer (blocking buffer containing 0.05% Tween®20) into test and control (just blocked) wells and the plate incubated for 45 min at 37° C.

[2] = target: T2, Human complement C4 protein (Millipore Sigma, Cat. 204886) (human, UniProt P0C0L4 20-675; P0C0L4 680-1446; P0C0L4 1454-1744, limits assumed, natural sulfotyrosines)
T2 construct: mature
T2 sequence (P0C0L4 20-675 limits assumed, form in doubt, chain 1 of 3): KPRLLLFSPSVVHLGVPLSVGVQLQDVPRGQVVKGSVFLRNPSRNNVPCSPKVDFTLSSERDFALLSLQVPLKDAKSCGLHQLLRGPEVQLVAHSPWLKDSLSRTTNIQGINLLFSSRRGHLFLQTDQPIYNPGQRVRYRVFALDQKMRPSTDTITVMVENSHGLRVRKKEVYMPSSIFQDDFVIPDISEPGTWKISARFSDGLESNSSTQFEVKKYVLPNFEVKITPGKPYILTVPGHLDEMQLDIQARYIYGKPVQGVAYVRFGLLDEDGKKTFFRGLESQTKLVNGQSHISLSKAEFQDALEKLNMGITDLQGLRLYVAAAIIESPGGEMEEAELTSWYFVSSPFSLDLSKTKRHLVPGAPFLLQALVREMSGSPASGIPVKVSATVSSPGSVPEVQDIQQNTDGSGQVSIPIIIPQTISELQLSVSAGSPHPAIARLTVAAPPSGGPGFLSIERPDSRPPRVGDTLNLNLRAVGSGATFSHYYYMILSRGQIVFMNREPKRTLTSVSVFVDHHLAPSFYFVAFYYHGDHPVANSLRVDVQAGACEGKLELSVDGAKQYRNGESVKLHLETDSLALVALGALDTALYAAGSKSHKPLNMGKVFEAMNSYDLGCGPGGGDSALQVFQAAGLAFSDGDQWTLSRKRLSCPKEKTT
T2 sequence (P0C0L4 680-1446 limits assumed, form in doubt, chain 2 of 3): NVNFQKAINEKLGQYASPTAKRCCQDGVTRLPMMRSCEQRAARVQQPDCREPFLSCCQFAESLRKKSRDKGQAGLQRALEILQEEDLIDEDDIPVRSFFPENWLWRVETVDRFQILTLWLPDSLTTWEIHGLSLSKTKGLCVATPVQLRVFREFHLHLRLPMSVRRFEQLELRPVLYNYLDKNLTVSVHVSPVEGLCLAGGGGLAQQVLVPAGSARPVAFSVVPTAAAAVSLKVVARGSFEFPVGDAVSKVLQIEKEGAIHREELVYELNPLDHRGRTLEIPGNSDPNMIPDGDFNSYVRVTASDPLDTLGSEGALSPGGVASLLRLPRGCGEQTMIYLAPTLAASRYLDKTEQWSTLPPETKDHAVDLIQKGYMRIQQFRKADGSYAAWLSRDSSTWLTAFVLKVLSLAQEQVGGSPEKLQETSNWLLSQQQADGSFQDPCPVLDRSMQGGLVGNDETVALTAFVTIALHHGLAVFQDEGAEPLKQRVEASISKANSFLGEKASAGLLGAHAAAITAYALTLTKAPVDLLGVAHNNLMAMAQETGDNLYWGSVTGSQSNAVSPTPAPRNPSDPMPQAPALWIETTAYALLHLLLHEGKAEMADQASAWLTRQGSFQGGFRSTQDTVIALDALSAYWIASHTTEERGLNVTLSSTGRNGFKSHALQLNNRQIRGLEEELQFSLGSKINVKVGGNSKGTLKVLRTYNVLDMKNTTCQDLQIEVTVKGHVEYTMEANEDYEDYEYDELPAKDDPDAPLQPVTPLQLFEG
T2 sequence (P0C0L4 1454-1744 limits assumed, form in doubt, chain 3 of 3): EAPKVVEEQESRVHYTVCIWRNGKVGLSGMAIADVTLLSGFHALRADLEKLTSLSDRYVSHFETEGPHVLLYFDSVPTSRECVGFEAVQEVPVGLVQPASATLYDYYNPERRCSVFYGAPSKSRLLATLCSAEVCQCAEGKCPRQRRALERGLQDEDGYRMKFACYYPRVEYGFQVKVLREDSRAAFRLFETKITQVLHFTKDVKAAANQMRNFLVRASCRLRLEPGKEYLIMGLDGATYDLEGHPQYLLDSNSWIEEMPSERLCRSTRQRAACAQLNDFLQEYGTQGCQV
Procedure: as §1

[3] = target: T3, Recombinant human PSGL-1(ECD)-hFc1 (R&D Systems, Cat. 3345-PS) (human, UniProt Q14242 42-305)
T3 construct: Bought; Gln42-Val295 counted on AAC50061; also called PSGL-1-Fc; PSGL-1-hFc1 chimera; not shown: human IgG1 Fc, Pro100-Lys330
T3 sequence: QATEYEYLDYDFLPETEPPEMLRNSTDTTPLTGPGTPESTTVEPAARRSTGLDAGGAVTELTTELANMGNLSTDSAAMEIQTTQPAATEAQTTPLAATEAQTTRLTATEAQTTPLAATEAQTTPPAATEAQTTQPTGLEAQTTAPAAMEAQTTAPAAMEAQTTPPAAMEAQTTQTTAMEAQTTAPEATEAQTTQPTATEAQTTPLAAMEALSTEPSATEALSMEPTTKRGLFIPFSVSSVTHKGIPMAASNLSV
Procedure: as §1

SulfoTyr C4 peptide = target: T4, SulfoTyr C4 peptide (not fully specified; Y4, Y7 and Y9 sulfated (SO3); C-terminal biotin)
T4 construct: also called C4 alpha chain peptide; human sulfotyrosinylated C4 peptide
T4 peptide: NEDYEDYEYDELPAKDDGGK
Procedure: as §1

[4] = target: T5, Human fibrinogen protein (ThermoFisher, RP-43142) (human, UniProt P02671 20-629; P02675 31-491; P02679 27-453, limits assumed, natural sulfotyrosines)
T5 construct: mature; Native dimer with 3 pairs of non-identical chains; also called gamma-fibrinogen; γ fibrinogen protein
T5 sequence (looked up) 1: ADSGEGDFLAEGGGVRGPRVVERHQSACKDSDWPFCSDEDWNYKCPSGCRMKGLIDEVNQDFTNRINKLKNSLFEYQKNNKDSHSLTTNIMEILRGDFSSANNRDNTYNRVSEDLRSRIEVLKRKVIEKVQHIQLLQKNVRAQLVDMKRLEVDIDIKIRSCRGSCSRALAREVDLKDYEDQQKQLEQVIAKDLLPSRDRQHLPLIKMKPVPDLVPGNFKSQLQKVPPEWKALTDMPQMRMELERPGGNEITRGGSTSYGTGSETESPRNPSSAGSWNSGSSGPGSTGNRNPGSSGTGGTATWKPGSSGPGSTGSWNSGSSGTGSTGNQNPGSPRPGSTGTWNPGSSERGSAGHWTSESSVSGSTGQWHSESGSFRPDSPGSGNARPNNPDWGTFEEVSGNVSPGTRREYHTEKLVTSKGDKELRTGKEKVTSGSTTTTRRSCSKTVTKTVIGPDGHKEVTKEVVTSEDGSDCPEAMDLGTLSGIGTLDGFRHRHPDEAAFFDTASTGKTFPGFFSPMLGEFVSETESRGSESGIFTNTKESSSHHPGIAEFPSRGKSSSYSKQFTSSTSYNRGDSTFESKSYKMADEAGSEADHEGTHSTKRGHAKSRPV
T5 sequence (looked up) 2: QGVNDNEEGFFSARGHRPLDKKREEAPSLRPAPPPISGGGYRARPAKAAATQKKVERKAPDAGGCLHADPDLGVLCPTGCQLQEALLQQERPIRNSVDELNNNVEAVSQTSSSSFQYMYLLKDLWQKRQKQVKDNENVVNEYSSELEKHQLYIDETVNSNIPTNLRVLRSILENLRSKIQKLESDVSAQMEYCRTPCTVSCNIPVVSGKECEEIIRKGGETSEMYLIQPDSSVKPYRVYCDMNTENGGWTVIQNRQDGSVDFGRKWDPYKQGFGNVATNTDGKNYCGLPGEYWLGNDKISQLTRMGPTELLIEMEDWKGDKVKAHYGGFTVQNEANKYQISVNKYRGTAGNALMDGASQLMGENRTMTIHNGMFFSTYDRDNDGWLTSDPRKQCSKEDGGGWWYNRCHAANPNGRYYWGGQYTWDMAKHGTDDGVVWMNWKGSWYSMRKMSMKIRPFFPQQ
T5 sequence (looked up) 3: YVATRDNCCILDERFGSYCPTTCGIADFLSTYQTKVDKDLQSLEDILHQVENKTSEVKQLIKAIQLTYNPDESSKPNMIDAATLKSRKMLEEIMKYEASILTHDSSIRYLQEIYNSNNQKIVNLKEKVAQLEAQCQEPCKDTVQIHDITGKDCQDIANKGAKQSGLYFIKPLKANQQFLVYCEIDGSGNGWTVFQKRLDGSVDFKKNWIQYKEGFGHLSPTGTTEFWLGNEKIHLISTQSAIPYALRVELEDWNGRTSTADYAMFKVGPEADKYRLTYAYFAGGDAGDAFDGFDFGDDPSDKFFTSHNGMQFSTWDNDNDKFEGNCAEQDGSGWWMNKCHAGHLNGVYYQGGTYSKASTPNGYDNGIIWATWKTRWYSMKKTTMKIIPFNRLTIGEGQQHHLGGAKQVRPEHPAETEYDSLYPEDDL
Procedure: as §1

SulfoCCK biotin peptide = target: T6, SulfoCCK biotin peptide (human)
T6 construct: also called sulfotyrosine CCK peptide
T6 peptide: SHRISDRD[sY]MGWMDFGGK(Biotin)
Procedure: as §1

[5] = target: T7, Sulfotyrosine CCR2b biotin peptide (human)
T7 construct: also called CCR2b peptide
T7 peptide: TTFFD[sY]D[sY]GAPSHGGK(Biotin)
Procedure: as §1

[6] = target: T8, Sulfotyrosine D6 biotin peptide (human)
T8 construct: also called D6 peptide
T8 peptide: ENSSFY[sY][sY]D[sY]LDEVAFGGK(Biotin)
Procedure: as §1

B1: 09A02 (antibody, IgG4, V domains shown)
VH: EVQLVQSGGGLVKPGGSLRLSCAASGFTFRTAWMSWVRQAPGKGLEWVGRMKSKNDGGTTDYAAPVKGRFTISRDDSRDTVYLQMNSLKTEDTGVYYCATYAAGATVPWGQGTLVTVSS
VL: DIVMTQTPLSAPVTLGQPASISCRSSRSLLQRNGYNYVDWYQQKAGNPPRLLIYLGSRRASGVPDRFSGSGSDKDFTLKISRVEADDVGFYFCKQSLQAPPTFGGGTKIEIT
- binding normalized to PSGL-1 [1]: 1.06
- binding normalized to PSGL-1 [2]: 0.56
- A450nm [3]: 2.51 A450nm
- binding normalized to PSGL-1 (SulfoTyr C4 peptide): 1
- binding normalized to PSGL-1 [4]: 0.29
- binding normalized to PSGL-1 (SulfoCCK biotin peptide): 1.1
- binding normalized to PSGL-1 [5]: 0.93
- binding normalized to PSGL-1 [6]: 1.1

B2: 06A07 (antibody, IgG4, V domains shown)
VH: QVQLVQSGPELKNPGASVKVSCKASGYSFTNFYINWVRQAPGRGLEWVGWISPNNGNTHYARNLQGRVTMTTDTSTNTAYLELKNLRSDDTAIYFCGRSVSMGYWGQGTLVTVSS
VL: LPVLTQPPSVSKGLRQTATLTCTGNSKNVGNQGAAWLQQHQGQPPKLLSYRNNNRPSGISERFSASRSGNTASLTITGLQPEDEADYYCSAWDSSLSAQVFGGGTKLTVL
- binding normalized to PSGL-1 [1]: 0.69
- binding normalized to PSGL-1 [2]: 0.57
- A450nm [3]: 2.51 A450nm
- binding normalized to PSGL-1 (SulfoTyr C4 peptide): 0.63
- binding normalized to PSGL-1 [4]: 0.12
- binding normalized to PSGL-1 (SulfoCCK biotin peptide): 0.65
- binding normalized to PSGL-1 [5]: 0.43
- binding normalized to PSGL-1 [6]: 0.68

B3: 05C02 (antibody, V domains shown)
VH: EVKLLESGGGVVQPGRSLRLSCAASGFTFKNFAMHWVRQAPGKGLEWVAVISYDGSSEDYADSVKGRFTLSRDNAKNSLYLQMNNLRAEDTAVYYCARGRRPDYWGQGTLVTVSS
VL: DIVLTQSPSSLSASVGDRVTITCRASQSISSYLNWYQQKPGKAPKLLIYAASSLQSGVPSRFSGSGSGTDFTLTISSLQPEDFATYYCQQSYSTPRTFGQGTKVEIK
- binding normalized to PSGL-1 [1]: 0.42
- binding normalized to PSGL-1 [2]: 0.48
- A450nm [3]: 2.27 A450nm
- binding normalized to PSGL-1 (SulfoTyr C4 peptide): 0.47
- binding normalized to PSGL-1 [4]: 0.06
- binding normalized to PSGL-1 (SulfoCCK biotin peptide): 0.17
- binding normalized to PSGL-1 [5]: 0.06
- binding normalized to PSGL-1 [6]: 0.52

B4: 06C04 (antibody, IgG4, V domains shown)
VH: EVQLVESGGGLVQPGGSLRLSCAASGFTFSDHYMDWVRQAPGKGLEWVGRSRNKVKSYTTAYAASVEGRITISRDDSKNSLYLEMNSLKTEDTAVYYCVRVRWGGAFDIWGQGTMVTVSS
VL: QPVLTQPPSASGSPGQSVTISCTGTSSDVGGYNYVSWYQQHPGKAPKLMIYEVSKRPSGVPDRFSGSKSGNTASLTVSGLQAEDEADYYCSSYAGSNNLRVFGGGTKLTVL
- binding normalized to PSGL-1 [1]: 1.15
- binding normalized to PSGL-1 [2]: 1.1
- A450nm [3]: 2.22 A450nm
- binding normalized to PSGL-1 (SulfoTyr C4 peptide): 0.94
- binding normalized to PSGL-1 [4]: 0.51
- binding normalized to PSGL-1 (SulfoCCK biotin peptide): 0.06
- binding normalized to PSGL-1 [5]: 0.23
- binding normalized to PSGL-1 [6]: 0.26

B5: 05A11 (antibody, IgG4, V domains shown)
VH: EVKLLESGGGVVQPGRSLRLSCAASGFSFSAYGMHWVRQAPGKGLEWVSSISGSGDGTYYADSVKGRFTISRDNSKNTLYLQMNSLRAEDAAVYYCAKSVKGRGYFFDYWGQGTLVTVSS
VL: DIVLTQSPSSLSASVGDRVTITCRASQSISSYLNWYQQKPGKAPKLLIYAASSLQSGVPSRFSGSGSGTDFTLSISNLQPEDFATYYCQQAYKFPRSFGGGTKVEFK
- binding normalized to PSGL-1 [1]: 0.87
- binding normalized to PSGL-1 [2]: 0.44
- A450nm [3]: 1.99 A450nm
- binding normalized to PSGL-1 (SulfoTyr C4 peptide): 0.44
- binding normalized to PSGL-1 [4]: 0.21
- binding normalized to PSGL-1 (SulfoCCK biotin peptide): 0.41
- binding normalized to PSGL-1 [5]: 0.09
- binding normalized to PSGL-1 [6]: 0.45

B6: 09C10 (antibody, V domains shown)
VH: EVKLLESGGGLIQPGGSLRLSCAASGFTVSNNYVTWVRQAPGKGLELVSSIYSGGGTYYADSVKGRFTISRDNSKNTVYLQMNSLRADDTAVYYCARNVPVTNFGYWGQGTLVTVSS
VL: DIVMTQSPLSLPVTLGQPASISCRSSQSLVYRDGNTYLNWFQQRPGQSPRRLIYKVSNRDSGVPDRFSGSGSGTDFTLKISRVEAEDVGVYYCMQLTHWPPGFAQGTKLEIK
- binding normalized to PSGL-1 [1]: 1.3
- binding normalized to PSGL-1 [2]: 0.88
- A450nm [3]: 2.16 A450nm
- binding normalized to PSGL-1 (SulfoTyr C4 peptide): 1.15
- binding normalized to PSGL-1 [4]: 0.61
- binding normalized to PSGL-1 (SulfoCCK biotin peptide): 0.75
- binding normalized to PSGL-1 [5]: 1.23
- binding normalized to PSGL-1 [6]: 1.2
